B1: V0024 (antibody, V domains shown)
VH: QVQLQQPGTELVKPGASVKLSCKASGYTFTRFWMHWVKQRPGQGLEWIGNINPNNGGTDNNERFKSKATLTVDRSSSTAYMQLSSLTSEDSAVYYCARGTGTGAMDYWGQGTSVTVSS
VL: DVVMTQTPLSLPVSLGDQASISCRSSQSLVHSNGNTHLYWYLQKPGQSPKLLIYRVSSRFSGVPDRFSGSGSGTDFTLKISRVEAEDLGVYFCFQGTHVPRTFGGGTKLEIK
modifications: here or on the partner: phosphorylated residues of pathological tau, sites not stated
B2: V0004 (antibody, V domains shown)
VH: QVQLQQPGAELVKPGASVKLSCKASDYTFTNYWMHWVKQRPGRGLEWIGRIDPNSGGTRYNEKFKNKATLTVDKPSSTAYMHLSSLTSEDSAVYYCAGDFDVWGTGTTVTVSS
VL: DIQMTQSPASLSASVGETVTITCRASGNIHNYLAWYQQRQGKSPQLLVYNAKTLPDGVPSRFSGSGSGTQYSLKINSLQPEDFGSYCCQHFWSTPLTFGAGTKLELK
B3: V0027 (antibody, V domains shown)
VH: QVQLQQSGPELVKPGASVKISCKASGYTFTEYYLNWMKQRPGQGLEWIGWIFPGRGSTNYNEKFKGKATLTVDKSSSTAYMLLSSLTSEDSAVYFCARPTIVARDYAMDYWGQGTSVTVSS
VL: DVLMTQTPLSLPVSLGDQASISCRSSQSIVHRNGNTYLEWYLQKPGQSPKLLIYKVSNRFSGVPDRFSGSGSGTDFTLKISRVEAEDLGVYYCFQGSHVPFTFGSGTKLEIK
B4: V0032 (antibody, V domains shown)
VH: QVQLKQSGAELVRPGASVKLSCKTSGYTFTDYYIKWVKQRPGQGLEWIARIYPGSGNTYYNEKFKGKATLTAEKSSSTAYMQLSSLTSEDSAVYFCARPAYYSKDYAMEYWGQGTSVTVSS
VL: DVLMTQTPLSLPVSLGDQASISCRSSQSIVYTNGNTYLEWYLQKPGQSPKLLIYKVSNRFSGVPDRFSGSGSGTDFTLKISRVEAEDLGVYYCFQGSHVPYTFGGGTKLEIK
B5: V0031 (antibody, V domains shown)
VH: QVQLQQPGTELVKPGASVKLSCKASGYTFTSYWMHWVKQRPGQGLEWIGNIYPSNGGTYYNEKFKSKATLTVDKSSSTAYMQLSSLTSEDSAVYYCARSSVVGRDYAMDYWGQGTSVTVSS
VL: DVLMTQTPLSLPVSLGDQASIACRSSQSIVHSNGNTYLEWYLQKPGQSPELLIYKVSNRFSGVPDRFSGSGSGTDFTLKISRVEAEDLGVYYCFQGSHVPYTFGGGTKLEIK
B6: V0050 (antibody, V domains shown)
VH: EVQLQQSGPELVKPGASVKIPCRASGYTFTDYNMDWVKQSHGKTLEWIGDINPNNGGTIYNQKFKGKATLTVDKSSSTAYMELRSLTSEDTAVYYCARGRGMGYYALDYWGQGTSVTVSS
VL: DIQMTQSPASLSASVGETVTFTCGASENVYGALNWYQRKQGKSPQLLIYGATNLADGMSSRFSGSGSGRQYSLKISSLHPDDVATYYCQNVLTIPWTFGGGAKLEIK
B7: V0052 (antibody, V domains shown)
VH: not shown
VL: SIVMTQTPKFLLVSAGDRVTITCKASQSVSNDVAWYQQKPGQSPKLLIYYASNRCTGVPDRFTGSGYGTDFTFTISTVQAEDLAVYFCQQDYRSPLTFGAGTKLELK
B8: V0023 (antibody, V domains shown)
VH: QVQLQQPGTELVKPGASVKLSCKASGYTFTIFWMHWVKQRPGHGLEWIGKINPNNGGGDYNEKFKSKATLTVDKSSTTAYLQLSSLTSEDSAVYYCARGTGTGAMDYWGQGTSVTVSS
VL: DVVMTQTPLSLPVSLGDHASISCRSSQSLVHSNGITHLYWYLQRPGQTPKLLIYRVSNRFSGVPDRFSGSGSGTDFTLKISSVEAEDLGVYFCFQGTHVPRTFGGGTKLEIE
B9: V0026 (antibody, V domains shown)
VH: QVQLQQSGPELVKPGASVKISCKASGYSFTDYYINWVKQRPGQGLEWIGWIFPGSDSTYYNEKFKGKATLTVDKSSSTASMLLSSLTSEDSAVYFCARPTVVARDYAMDYWGQGTSVTVSS
VL: DVLMTQTPLSLPVSLGDQASISCRSSQSIVYSNGNTYLEWYLQKPGQSPKLLIYKVSNRFSGVPDRFSGSGSGTDFTLKISRVEAEDLGVYYCFQGSHVPYTFGGGTKLEIK
B10: V0022 (antibody, V domains shown)
VH: QVQLQQPGTELVKPGSSVNLSCKASGFTFTRYWMHWVKERPGHGLEWIGNINPNNGGTDFNEKFKNKATLTVHKSSTTVFIQLSSLTSEDSAVYYCARGTGTGAMDYWGQGTSVTVSS
VL: DVVMTQTPLSLPVSLGDQASISCRSSQSLVHNNGITYLYWYLQKPGQSPKLLIYRVSNRFSGVPDRFGGSGSGTDFTLKISRVEAEDLGVYFCFQGTHVPRTFGGGTKLEIK
B11: V0021 (antibody, V domains shown)
VH: QVQLQQPGIELVKTGASVKLSCKASGYTFTSNWMHWLKQRPGQGLEWIGNINPNNSETNYNEKFRKKATLTVDKSSSAAYMQLISLTSEDSAVYYCARANYYGGSQFAYWGQGTLVTVSA
VL: DVVMTQTPLSLCVSLGDQASISCRSSQSLVHSNGKTYLHWYLQKPGQSPNLLIYKVSNRFSGVPDRFSGSGSGTDFTLKISRVEAEDLGVYFCSQSTHVPFTFGSGTKLEIK
B12: V0020 (antibody, V domains shown)
VH: QVQLQQPGTDLVKPGASVKLSCKASGYTFTSYWMHWLKQRPGQGLEWIGNINPNNSDANYNEKFKSKATLTVDKSSSAAYMQLISLTSEDSAVYYCARANYYGGSQFAYWGQGTLVTVSA
VL: DVVVTQTPLSLPVSLGDQASISCRSSQSLVHSNGKTYLHWYLQKPGQSPNLLIYKVSNRFSGVPDRFSGSGSGTDFTLKISRVEAEDLGVYFCSQSTHVPFTFGSGTKLEIK
B13: V0058 (antibody, V domains shown)
VH: not shown
VL: DIVMTQSPSSLSVSAGEKVTMSCKSSQSLLSSGNQKNYLAWYQQKPGQPPKLLIYGASTRESGVPDRFTGSGSGTDFTLTISSVQAEDLAVYYCQNDHSHPYTFGGGTKLEIK
B14: V0057 (antibody, V domains shown)
VH: not shown
VL: DIVMTQSPSSLSVSAGEKVTMSCKSSQSLLNSGNQKNYLAWYQQKPGQPPKLLIYGASTRESGVPDRFTGSGSGTDFTLTISSVQAEDLAVYYCQNDHSHPYTFGGGTKLEIK
B15: V0055 (antibody, V domains shown)
VH: not shown
VL: DIVMTQSPSSLSVSAGEKVTMSCKSSQSLLNSGNQKNYLAWYQQKPGQPPKLLIYGASTRESGVPDRFTGSGSGTDFTLTISSVQAEDLAVYYCQNDHSHPYTFGGGTKLEIK
B16: V0054 (antibody, V domains shown)
VH: not shown
VL: DIVMTQSPSSLSVSAGEKVTMSCKSSQSLLNSGNQKNYLAWYQQKPGQPPKLLIYGTSTRESGVPDRFTGSGSGTDFTLTISSVQAEDLAVYYCQNDHSHPYTFGGGTKLEIK
B17: V00016 (antibody, V domains shown)
VH: EVQLQQSGAELVKPGASVKLSCTASGFNIKDYYIHWVKQRTEQGLEWIGRIDPEDGETKYAPKFQGKATIAADTSSNTAYLHLNSLTSEDTAVYYCAREFSYAMDYWGQGTSVTVSS
VL: NIMMTQSPSSLAVSAGEKVTMSCKSSQSVLYSSNQKNYLAWYQQKPGQSPKLLIYWASTRESGVPDRFTGSGSGTDFTLTISSVQAEDLAVYYCHQYLSSRTFGGGTKLEIK

The first experiment concerns the target T1, enriched paired helical filament tau protein (ePHF) (human). Kind of experiment: direct ELISA. The conditions noted are these: remark: other sources report otherwise. For orientation: An ELISA detects its analyte on a solid surface through an enzyme-linked reagent.
B1 registered an EC50 of 0.125 nM. In other words, the sub-nanomolar range.

The target in a further experiment is wild type tau (Homo sapiens (Human)), P10636. Briefly: Octet. The conditions noted are these: remark: other sources report otherwise. (In BLI a coated tip is dipped into the sample, and binding shifts an interference pattern.)
In turn, B2 registered a Kd of over 200 nM.
The same measure, in the same setting: under B3 stands over 200 nM; under B4, over 200 nM.
On the same count and under the same terms, under B5 stands over 200 nM.
Still for that read-out and setting: the same measure for B6: over 200 nM; for B7: over 200 nM.
Molecule B1 had a dissociation constant (Kd) of over 200 nM.
Still for that read-out and setting: the same measure for B8: over 200 nM; for B9: over 200 nM; for B10: over 200 nM.
B11 gave a dissociation constant Kd of over 200 nM.
Same read-out and setting: under B12 stands over 200 nM.
Regarding B13, the Kd was over 200 nM.
Take B14: the dissociation constant (Kd) was over 200 nM.
In turn, B15 showed a Kd of over 200 nM.
With B16, the Kd is over 200 nM.

In a further experiment the target is T1, enriched paired helical filament tau …. Kind of experiment: follow up analysis, method not stated. The conditions noted are these: remark: other sources report otherwise.
Regarding B1, the selectivity for ePHF over wild type tau was over 100 fold.

The next experiment concerns the target iPHF (Homo sapiens (Human)), P10636. Briefly: Octet, antibody on biosensor tips. The conditions noted are these: remark: other sources report otherwise.
B1 returned a Kd of 2.8 nM.
On the same count and under the same terms, the same measure for B17: 5.5 nM.

As usually defined, the EC50 is the concentration needed to bring the measured effect to its halfway point. A low value points to higher potency in that assay. In general, Kd refers to a measure of binding affinity in units of concentration. A low value points to higher affinity.

The values above are taken from US12709641B2.
